3 molecules from patent US6475744 (GENERAL HOSPITAL CORPORATION A MASSACHUSETTS, dated 2002) can be followed below.

One test has as its target CYC (Drosophila) (UniProt O61734). As to the kind of experiment: cell-based or functional assay.
In another test the target is syrian hamster (sh)BMAL1 (syrian hamster, UniProt O88529 1-626). Nature of the test: cell-based or functional assay.
Chain of syrian hamster (sh)BMAL1 (O88529 whole entry): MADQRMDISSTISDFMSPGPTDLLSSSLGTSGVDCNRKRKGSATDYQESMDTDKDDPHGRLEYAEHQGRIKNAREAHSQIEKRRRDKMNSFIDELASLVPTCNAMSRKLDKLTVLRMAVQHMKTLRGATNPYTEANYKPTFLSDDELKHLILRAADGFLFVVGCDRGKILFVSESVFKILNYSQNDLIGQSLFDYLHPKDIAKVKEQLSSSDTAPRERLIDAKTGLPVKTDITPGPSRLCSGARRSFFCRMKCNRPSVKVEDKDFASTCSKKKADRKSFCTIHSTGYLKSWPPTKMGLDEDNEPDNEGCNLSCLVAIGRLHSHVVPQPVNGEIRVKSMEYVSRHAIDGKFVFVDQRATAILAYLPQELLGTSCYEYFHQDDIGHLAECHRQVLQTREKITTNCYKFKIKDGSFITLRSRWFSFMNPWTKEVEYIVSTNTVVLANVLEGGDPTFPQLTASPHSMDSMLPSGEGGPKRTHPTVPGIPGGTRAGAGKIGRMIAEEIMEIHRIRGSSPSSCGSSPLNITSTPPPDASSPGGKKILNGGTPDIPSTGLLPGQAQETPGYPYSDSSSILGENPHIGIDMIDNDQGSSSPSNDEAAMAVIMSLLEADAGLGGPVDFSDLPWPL

Chain of CYC (Drosophila) (O61734 whole entry): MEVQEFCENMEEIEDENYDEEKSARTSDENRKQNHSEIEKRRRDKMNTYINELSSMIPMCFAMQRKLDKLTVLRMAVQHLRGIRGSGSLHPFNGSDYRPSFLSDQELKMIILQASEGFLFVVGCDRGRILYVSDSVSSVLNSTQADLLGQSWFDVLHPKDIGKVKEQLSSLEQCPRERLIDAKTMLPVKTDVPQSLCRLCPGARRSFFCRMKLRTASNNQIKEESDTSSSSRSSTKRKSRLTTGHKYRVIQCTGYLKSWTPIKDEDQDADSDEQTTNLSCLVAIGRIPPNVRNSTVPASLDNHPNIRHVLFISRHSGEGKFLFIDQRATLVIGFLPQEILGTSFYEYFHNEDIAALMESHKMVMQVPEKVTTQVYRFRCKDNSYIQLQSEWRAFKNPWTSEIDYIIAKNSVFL

dCLOCK (from UniProt O61735 1-1027) had a transcriptional activity (per E box luciferase reporter, S2 cells) in the test with CYC (Drosophila) of 265 fold.

B1: mCLOCK (other, mouse, UniProt O08785 1-855, looked up)
chain: MVFTVSCSKMSSIVDRDDSSIFDGLVEEDDKDKAKRVSRNKSEKKRRDQFNVLIKELGSMLPGNARKMDKSTVLQKSIDFLRKHKETTAQSDASEIRQDWKPTFLSNEEFTQLMLEALDGFFLAIMTDGSIIYVSESVTSLLEHLPSDLVDQSIFNFIPEGEHSEVYKILSTHLLESDSLTPEYLKSKNQLEFCCHMLRGTIDPKEPSTYEYVRFIGNFKSLTSVSTSTHNGFEGTIQRTHRPSYEDRVCFVATVRLATPQFIKEMCTVEEPNEEFTSRHSLEWKFLFLDHRAPPIIGYLPFEVLGTSGYDYYHVDDLENLAKCHEHLMQYGKGKSCYYRFLTKGQQWIWLQTHYYITYHQWNSRPEFIVCTHTVVSYAEVRAERRRELGIEESLPETAADKSQDSGSDNRINTVSLKEALERFDHSPTPSASSRSSRKSSHTAVSDPSSTPTKIPTDTSTPPRQHLPAHEKMTQRRSSFSSQSINSQSVGPSLTQPAMSQAANLPIPQGMSQFQFSAQLGAMQHLKDQLEQRTRMIEANIHRQQEELRKIQEQLQMVHGQGLQMFLQQSNPGLNFGSVQLSSGNSNIQQLTPVNMQGQVVPANQVQSGHISTGQHMIQQQTLQSTSTQQSQQSVMSGHSQQTSLPSQTPSTLTAPLYNTMVISQPAAGSMVQIPSSMPQNSTQSATVTTFTQDRQIRFSQGQQLVTKLVTAPVACGAVMVPSTMLMGQVVTAYPTFATQQQQAQTLSVTQQQQQQQQQPPQQQQQQQQSSQEQQLPSVQQPAQAQLGQPPQQFLQTSRLLHGNPSTQLILSAAFPLQQSTFPPSHHQQHQPQQQQQLPRHRTDSLTDPSKVQPQ
With B1, in the test with syrian hamster (sh)BMAL1, the “transcriptional activation (vasopressin promoter luciferase reporter, NIH3T3 cells)” value was found to be 10 fold increase and the “transcriptional activity (per E box luciferase reporter, S2 cells)” value was 1740 fold.

B2: human (h)MOP4 (other, UniProt Q99743 1-824, looked up)
chain: MDEDEKDRAKRASRNKSEKKRRDQFNVLIKELSSMLPGNTRKMDKTTVLEKVIGFLQKHNEVSAQTEICDIQQDWKPSFLSNEEFTQLMLEALDGFIIAVTTDGSIIYVSDSITPLLGHLPSDVMDQNLLNFLPEQEHSEVYKILSSHMLVTDSPSPEYLKSDSDLEFYCHLLRGSLNPKEFPTYEYIKFVGNFRSYNNVPSPSCNGFDNTLSRPCRVPLGKEVCFIATVRLATPQFLKEMCIVDEPLEEFTSRHSLEWKFLFLDHRAPPIIGYLPFEVLGTSGYDYYHIDDLELLARCHQHLMQFGKGKSCCYRFLTKGQQWIWLQTHYYITYHQWNSKPEFIVCTHSVVSYADVRVERRQELALEDPPSEALHSSALKDKGSSLEPRQHFNTLDVGASGLNTSHSPSASSRSSHKSSHTAMSEPTSTPTKLMAEASTPALPRSATLPQELPVPGLSQAATMPAPLPSPSSCDLTQQLLPQTVLQSTPAPMAQFSAQFSMFQTIKDQLEQRTRILQANIRWQQEELHKIQEQLCLVQDSNVQMFLQQPAVSLSFSSTQRPEAQQQLQQRSAAVTQPQLGAGPQLPGQISSAQVTSQHLLRESSVISTQGPKPMRSSQLMQSSGRSGSSLVSPFSSATAALPPSLNLTTPASTSQDASQCQPSPDFSHDRQLRLLLSQPIQPMMPGSCDARQPSEVSRTGRQVKYAQSQTVFQNPDAHPANSSSAPMPVLLMGQAVLHPSFPASQPSPLQPAQARQQPPQHYLQVQAPTSLHSEQQDSLLLSTYSQQPGTLGYPQPPPAQPQPLRPPRRVSSLSESSGLQQPPR
Consider B2, for which, in the test with syrian hamster (sh)BMAL1, the “transcriptional activation (vasopressin promoter luciferase reporter, NIH3T3 cells)” value was 37 fold increase and the “transcriptional activity (per E box luciferase reporter, S2 cells)” value turned out to be 539 fold.
